Reference: US20240034792A1

Molecular target: Human PD-1 expressed on CHO-K1 cells (CHO-K1/hPD-1) (human) (UniProt Q15116)
Assay: FACS, CHO-K1/hPD-1 cells

Sequence of Human PD-1 expressed on CHO-K1 cells (CHO-K1/hPD-1) (human) (Q15116 25-288): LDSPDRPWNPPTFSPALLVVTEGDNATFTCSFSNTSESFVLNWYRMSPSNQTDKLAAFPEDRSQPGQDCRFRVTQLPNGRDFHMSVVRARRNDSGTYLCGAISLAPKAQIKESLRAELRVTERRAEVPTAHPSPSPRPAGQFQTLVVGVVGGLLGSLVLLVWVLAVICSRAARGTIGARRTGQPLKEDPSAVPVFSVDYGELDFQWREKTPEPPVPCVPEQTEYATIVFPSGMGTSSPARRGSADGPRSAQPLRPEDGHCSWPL

Maximum (MFI): 49300
Substance: hIgG1 (antibody)
